{
  "source": "patent US20180291110A1",
  "about": "(Hoffmann-La Roche, published 2018)",
  "binders": {"B1": {"name": "2/99 VH2/VL17 (antibody, V domains shown)", "VH": "EVQLVETGGGLIQPGGSLRLSCAASGFSLSSYAMSWVRQAPGKGLEWVGYIWSGGSTDYADSVKGRFTISRDNSKNTLYLQMNSLRAEDTAVYYCARRYGTSYPDYGDANGFDPWGQGTLVTVSS", "VL": "AIQLTQSPSSLSASVGDRVTITCRASQSISSYLAWYQQKPGKAPKLLIYRASTLASGVPSRFSGSGSGTDFTLTISSLQPEDFATYYCQQTYSSSNVDNTFGGGTKVEIK"}, "B2": {"name": "2/99 VH19/VL17 (antibody, V domains shown)", "VH": "QSMQESGPGLVKPSQTLSLTCTVSGFSLSSYAMSWIRQHPGKGLEWIGYIWSGGSTDYAPSLKSRVTISVDTSKNQFSLKLSSVTAADTAVYYCARRYGTSYPDYGDANGFDPWGQGTLVTVSS", "VL": "B1 VL"}, "B3": {"name": "2/99 VH5/VL17 (antibody, V domains shown)", "VH": "QSMEETGGGLIQPGGSLRLSCAASGFSLSSYAMSWVRQAPGKGLEWVGYIWSGGSTDYADSVKGRFTISRDNSKNTLYLQMNSLRAEDTAVYYCARRYGTSYPDYGDANGFDPWGPGTLVTVSS", "VL": "B1 VL"}, "B4": {"name": "2/99 VH16/VL17 (antibody, V domains shown)", "VH": "B2 VH with S2Q, M3L, Q15E, I36V, H39P, A59N, F77V, Q116P", "VL": "B1 VL"}, "B5": {"name": "2/99 VH9/VL17 (antibody, V domains shown)", "VH": "B3 VH with S2Q, M3L, E4L, T6S, I11V, S27T, L28F, R96K, P116Q", "VL": "B1 VL"}, "B6": {"name": "2/99 VH22/VL17 (antibody, V domains shown)", "VH": "B2 VH with I36V, P60S, S61W, L62A, F77V", "VL": "B1 VL"}, "B7": {"name": "2/99 VH20/VL17 (antibody, V domains shown)", "VH": "B2 VH with F77V", "VL": "B1 VL"}, "B8": {"name": "2/99 VH13/VL17 (antibody, V domains shown)", "VH": "QVQLQESGPGLVKPSETLSLTCTVSGFSLSSYAMSWIRQPPGKGLEWIGYIWSGGSTDYNPSLKSRVTISVDTSKNQVSLKLSSVTAADTAVYYCARRYGTSYPDYGDANGFDPWGQGTLVTVSS", "VL": "B1 VL"}, "B9": {"name": "2/99 VH12/VL17 (antibody, V domains shown)", "VH": "B8 VH with V78F", "VL": "B1 VL"}, "B10": {"name": "2/99 VH11/VL17 (antibody, V domains shown)", "VH": "B3 VH with S2Q, M3L, E4L, T6S, I11V, P116Q", "VL": "B1 VL"}, "B11": {"name": "2/99 VH6/VL17 (antibody, V domains shown)", "VH": "B3 VH with S2Q, M3L, E4V, V47I, P116Q", "VL": "B1 VL"}, "B12": {"name": "2/99 VH15/VL17 (antibody, V domains shown)", "VH": "B2 VH with S2Q, M3L, Q15E, I36V, H39P, A59N, F77V", "VL": "B1 VL"}, "B13": {"name": "2/99 VH17/VL17 (antibody, V domains shown)", "VH": "B2 VH with S2Q, M3L, Q15E, I36V, H39P, A59N, V70K, F77V, Q116P", "VL": "B1 VL"}, "B14": {"name": "2/99 VH18/VL17 (antibody, V domains shown)", "VH": "B8 VH with E16Q, P40H, N60A, V78F", "VL": "B1 VL"}, "B15": {"name": "2/99 VH8/VL17 (antibody, V domains shown)", "VH": "QQLVETGGGLIQPGGSLRLSCAASGFSLSSYAMSWVRQAPGKGLEWIGYIWSGGSTDYASWAKGRFTISKTSTTLYLQMNSLRAEDTAVYYCARRYGTSYPDYGDANGFDPWGQGTLVTVSS", "VL": "B1 VL"}, "B16": {"name": "2/99 VH7/VL17 (antibody, V domains shown)", "VH": "B3 VH with S2Q, M3L, E4V, V47I, D60S, S61W, V62A, P116Q", "VL": "B1 VL"}, "B17": {"name": "2/99 VH21/VL17 (antibody, V domains shown)", "VH": "B2 VH with P60S, S61W, L62A, F77V", "VL": "B1 VL"}, "B18": {"name": "Pertuzumab HC x Pertuzumab (Tras.L3) G32A LC (antibody, V domains shown)", "VH": "EVQLVESGGGLVQPGGSLRLSCAASGFTFTDYTMDWVRQAPGKGLEWVADVNPNSGGSIYNQRFKGRFTLSVDRSKNTLYLQMNSLRAEDTAVYYCARNLGPSFYFDYWGQGTLVTVSS", "VL": "DIQMTQSPSSLSASVGDRVTITCKASQDVSIAVAWYQQKPGKAPKLLIYSASYRYTGVPSRFSGSGSGTDFTLTISSLQPEDFATYYCQQHYTTPPTFGQGTKVEIK"}, "B19": {"name": "Pertuzumab HC x Pertuzumab (Tras.L3) K24R LC (antibody, V domains shown)", "VH": "B18 VH", "VL": "B18 VL with K24R, A32G"}, "B20": {"name": "Pertuzumab HC x Pertuzumab (Tras.L3) I31V LC (antibody, V domains shown)", "VH": "B18 VH", "VL": "B18 VL with I31V, A32G"}, "B21": {"name": "Pertuzumab HC x Pertuzumab (Tras.L3) T56S LC (antibody, V domains shown)", "VH": "B18 VH", "VL": "B18 VL with A32G, T56S"}, "B22": {"name": "Pertuzumab HC x Pertuzumab (Tras.L3) R54L LC (antibody, V domains shown)", "VH": "B18 VH", "VL": "B18 VL with A32G, R54L"}, "B23": {"name": "Pertuzumab HC x Pertuzumab (Tras.L3) I31T LC (antibody, V domains shown)", "VH": "B18 VH", "VL": "B18 VL with I31T, A32G"}, "B24": {"name": "Pertuzumab HC x Pertuzumab (Tras.L3) P96Y LC (antibody, V domains shown)", "VH": "B18 VH", "VL": "B18 VL with A32G, P96Y"}, "B25": {"name": "Pertuzumab HC x Pertuzumab (Tras.L3) S30N LC (antibody, V domains shown)", "VH": "B18 VH", "VL": "B18 VL with S30N, A32G"}, "B26": {"name": "Pertuzumab HC x Pertuzumab (Tras.L3) G66R LC (antibody, V domains shown)", "VH": "B18 VH", "VL": "B18 VL with A32G, G66R"}},
  "note": "Residue numbers refer to the chain shown, from its start. Names may count otherwise.",
  "data": [
    {"target": "T1, human transferrin receptor (recombinant, for surface plasmon resonance) (human, UniProt P02786 89-760)", "T1 construct": "also called huTfR; human transferrin receptor-biotinylated", "T1 sequence (P02786 89-760 limits assumed)": "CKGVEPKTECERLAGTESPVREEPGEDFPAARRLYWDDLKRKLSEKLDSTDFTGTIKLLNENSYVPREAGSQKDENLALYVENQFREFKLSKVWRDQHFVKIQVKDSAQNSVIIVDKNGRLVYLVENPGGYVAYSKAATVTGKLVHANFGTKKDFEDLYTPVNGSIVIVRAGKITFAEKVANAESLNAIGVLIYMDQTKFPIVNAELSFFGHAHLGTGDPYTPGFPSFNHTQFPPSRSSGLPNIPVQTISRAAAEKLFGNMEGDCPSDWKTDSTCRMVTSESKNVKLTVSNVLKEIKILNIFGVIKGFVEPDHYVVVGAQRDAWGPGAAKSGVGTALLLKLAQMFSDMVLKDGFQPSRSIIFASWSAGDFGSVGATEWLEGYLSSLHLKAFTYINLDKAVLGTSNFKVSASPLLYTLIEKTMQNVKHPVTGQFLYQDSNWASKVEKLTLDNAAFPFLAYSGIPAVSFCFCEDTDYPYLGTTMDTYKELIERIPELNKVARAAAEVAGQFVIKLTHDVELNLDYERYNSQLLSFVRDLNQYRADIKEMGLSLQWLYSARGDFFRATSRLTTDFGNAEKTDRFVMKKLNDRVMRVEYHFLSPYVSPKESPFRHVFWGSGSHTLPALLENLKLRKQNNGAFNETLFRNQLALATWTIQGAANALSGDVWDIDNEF", "assay": "SPR 25C", "units": {"koff": "s⁻¹"}, "values": [
      {"binder": "B1", "koff": 0.00712},
      {"binder": "B2", "koff": 0.001},
      {"binder": "B3", "koff": 0.00745},
      {"binder": "B4", "koff": 0.00166},
      {"binder": "B5", "koff": 0.00425},
      {"binder": "B6", "koff": 0.000938},
      {"binder": "B7", "koff": 0.00457},
      {"binder": "B8", "koff": 0.00339},
      {"binder": "B9", "koff": 0.00727},
      {"binder": "B10", "koff": 0.00755},
      {"binder": "B11", "koff": 0.00717},
      {"binder": "B12", "koff": 0.00169},
      {"binder": "B13", "koff": 0.000988},
      {"binder": "B14", "koff": 0.0053},
      {"binder": "B15", "koff": 0.00112},
      {"binder": "B16", "koff": 0.00187},
      {"binder": "B17", "koff": 0.000997}
    ]},
    {"target": "T2, Her2 ECD (amino acids 1 to 629 of matured HER2 with C-terminal avi-tag and His-tag) (human, UniProt P04626 23-652)", "T2 construct": "also called purified Her2", "assay": "SPR, Ab captured, Her2 analyte;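 note: ProteOn XPR36 SPR, rate constants from simultaneous fit of association and dissociation sensorgrams to a 1:1 Langmuir model, buffer-channel referenced, KD taken as koff/kon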", "units": {"Kd": "nM", "koff": "s⁻¹", "kon": "M⁻¹ s⁻¹"}, "values": [
      {"binder": "B18", "Kd": 3.66, "koff": 0.00187, "kon": 511000},
      {"binder": "B19", "Kd": 4.62, "koff": 0.00211, "kon": 457000},
      {"binder": "B20", "Kd": 4.35, "koff": 0.00192, "kon": 440000},
      {"binder": "B21", "Kd": 5.52, "koff": 0.00245, "kon": 443000},
      {"binder": "B22", "Kd": 4.87, "koff": 0.00226, "kon": 464000},
      {"binder": "B23", "Kd": 4.06, "koff": 0.00175, "kon": 431000},
      {"binder": "B24", "Kd": 2.82, "koff": 0.00097, "kon": 344000},
      {"binder": "B25", "Kd": 3.4, "koff": 0.0018, "kon": 530000},
      {"binder": "B26", "Kd": 6.91, "koff": 0.00247, "kon": 358000}
    ]}
  ]
}
